Data published in patent US20220380409A1.

Target: PfLDH protein (UniProt Q27743)
Assay: -

## primary ligand hevwh
  Kd: 5 µM
